T1: full length human MSR1 with a C-terminal Myc tag, on HEK293.Myc.hMSR1 cells (human, UniProt P21757 1-451)
T1 sequence (looked up): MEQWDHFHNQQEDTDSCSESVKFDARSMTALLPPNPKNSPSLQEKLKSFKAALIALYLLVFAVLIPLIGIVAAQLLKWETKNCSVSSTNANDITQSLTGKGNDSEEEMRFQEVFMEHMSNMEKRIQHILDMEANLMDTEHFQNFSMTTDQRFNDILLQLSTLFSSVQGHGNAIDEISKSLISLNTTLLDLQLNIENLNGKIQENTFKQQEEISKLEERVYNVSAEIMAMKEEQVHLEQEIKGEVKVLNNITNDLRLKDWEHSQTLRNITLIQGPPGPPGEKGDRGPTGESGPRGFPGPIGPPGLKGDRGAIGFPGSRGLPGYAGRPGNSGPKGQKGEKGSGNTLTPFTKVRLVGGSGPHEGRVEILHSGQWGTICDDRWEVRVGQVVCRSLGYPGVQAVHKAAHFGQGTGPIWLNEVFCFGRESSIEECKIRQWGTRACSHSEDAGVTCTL

T2: mouse MSR1 on RAW264.7 cells (mouse, UniProt P30204 1-458)
T2 construct: whole, on cells; also called MSR1 positive RAW264.7 cells
T2 sequence (looked up): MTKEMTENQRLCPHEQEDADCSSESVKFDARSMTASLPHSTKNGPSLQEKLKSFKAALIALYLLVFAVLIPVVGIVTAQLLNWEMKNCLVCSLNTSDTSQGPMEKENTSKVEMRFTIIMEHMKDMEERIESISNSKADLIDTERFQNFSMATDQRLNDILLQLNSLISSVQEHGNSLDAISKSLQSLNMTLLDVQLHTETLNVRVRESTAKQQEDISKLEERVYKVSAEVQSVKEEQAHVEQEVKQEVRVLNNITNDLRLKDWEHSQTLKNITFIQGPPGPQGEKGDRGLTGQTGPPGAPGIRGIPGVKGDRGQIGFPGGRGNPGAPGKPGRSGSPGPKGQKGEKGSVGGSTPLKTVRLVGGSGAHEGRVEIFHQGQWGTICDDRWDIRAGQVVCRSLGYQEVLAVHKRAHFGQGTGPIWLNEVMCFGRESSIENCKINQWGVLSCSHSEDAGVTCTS

T3: human MSR1 extracellular domain expressed with a N-terminal nonahistidine tag (human, UniProt P21757 77-451)
T3 construct: extracellular domain; also called His9-hMSR1; His-hMSR1
T3 sequence: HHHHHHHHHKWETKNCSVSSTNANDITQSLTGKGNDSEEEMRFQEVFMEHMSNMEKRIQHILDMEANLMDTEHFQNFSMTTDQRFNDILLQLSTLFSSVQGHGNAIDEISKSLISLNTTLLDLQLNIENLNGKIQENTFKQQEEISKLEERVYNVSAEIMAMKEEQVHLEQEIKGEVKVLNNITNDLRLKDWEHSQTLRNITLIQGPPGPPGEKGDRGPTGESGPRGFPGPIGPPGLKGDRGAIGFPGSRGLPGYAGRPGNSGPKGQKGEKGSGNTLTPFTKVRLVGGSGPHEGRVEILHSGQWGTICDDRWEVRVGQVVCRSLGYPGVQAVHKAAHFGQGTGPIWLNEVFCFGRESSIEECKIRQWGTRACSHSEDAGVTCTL

T4: human MSR1 extracellular domain expressed with a N-terminal nonahistidine tag (His9-hMSR1); R&D Systems, Cat … (human, UniProt P21757 77-451)
T4 construct: extracellular domain; Bought reagent; also called His-hMSR1; 9xHis-hMSR1
T4 sequence: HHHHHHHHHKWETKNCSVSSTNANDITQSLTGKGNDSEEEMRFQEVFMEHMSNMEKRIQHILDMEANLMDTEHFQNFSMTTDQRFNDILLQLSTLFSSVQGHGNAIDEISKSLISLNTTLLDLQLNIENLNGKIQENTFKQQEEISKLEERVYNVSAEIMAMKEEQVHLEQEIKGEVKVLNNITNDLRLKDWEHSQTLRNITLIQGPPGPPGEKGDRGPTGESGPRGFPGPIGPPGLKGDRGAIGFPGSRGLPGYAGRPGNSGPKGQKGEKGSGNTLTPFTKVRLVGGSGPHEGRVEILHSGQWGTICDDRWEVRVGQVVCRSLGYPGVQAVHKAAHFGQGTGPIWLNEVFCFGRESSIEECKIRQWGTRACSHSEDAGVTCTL


Key:
[1] = biological target: T1, full length human MSR1 with a …; assay: cell-based or functional assay
[2] = biological target: T2, mouse MSR1 on RAW264.7 cells; assay: flow cytometry, RAW264.7 cells
Protocol: To block binding to Fc receptors, RAW264.7 cells were incubated for 30 minutes at 4° C. with 500 pg/mL mouse IgG (Jackson ImmunoResearch, Cat #015-000-003) diluted in staining buffer, while B16F10.9 cells remained in staining buffer. […] The signal to noise (S/N) was determined by calculating the ratio of the anti-MSR1 antibodies or the control antibodies MFI to the unstained sample MFI (Table 11).

[3] = biological target: T3, human MSR1 extracellular domain …; assay: competition ELISA, plate-coated His9-hMSR1; 300 nM antibody, competitor ligand biot-AGE-BSA
Protocol: (§1) Buffer alone was also added to wells on each coat. […] This assay was conducted in four different assay runs.
(§2) Data analysis was performed using a sigmoidal dose-response model within Prism™ software (GraphPad).

[4] = biological target: T3, human MSR1 extracellular domain …; assay: competition ELISA, plate-coated His9-hMSR1; 100 nM antibody, competitor ligand Ac-LDL
Protocol: as §1, §2

[5] = biological target: T4, human MSR1 extracellular domain …; assay: SPR Biacore T200, 25 C, antibody captured by anti-human Fc, His9-hMSR1 injected;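 note: running buffer HBS-ET pH 7.4, rates from sensorgrams fitted to a 1:1 model including mass transport limitation, KD and half-life derived from the kinetic constants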
Protocol: (§3) All binding studies were performed in 10 mM HEPES, 300 mM NaCl, 3 mM EDTA, and 0.05% v/v Surfactant Tween-20, pH 7.4 (HBS-ET) running buffer at 25° C.
(§4) The association rate (kₐ) and dissociation rate (kd) were determined by fitting the real-time binding sensorgrams to a 1:1 binding model with mass transport limitation using Scrubber 2.0c curve-fitting software. Binding dissociation equilibrium constant (KD) and dissociative half-life (t½) were calculated from the kinetic rates as:

[6] = biological target: T4, human MSR1 extracellular domain …; assay: SPR Biacore T200, 25 C, antibody captured by anti-human Fc, His9-hMSR1 injected; no dissociation seen, kd fixed at 1.00E-05;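 for kon: running buffer HBS-ET pH 7.4, rates from sensorgrams fitted to a 1:1 model including mass transport limitation, KD and half-life derived from the kinetic constants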
Protocol: as §3, §4

| Binder | % Inhibition of Dil-Acetylated LDL uptake [1] [%] | % Inhibition of Dil-Oxidized LDL uptake [1] [%] | MFI [2] [MFI] | S/N (MFI over unstained MFI) [2] | Kd [6] [nM] | t½ [6] [h] | further results |
| --- | --- | --- | --- | --- | --- | --- | --- |
| H1H27756P-N297Q (antibody, human IgG1, V domains shown, human IgG1 Fc with N297Q) VH: QVQLVESGGGVVQPGRSLRLSCAASGFTFSNYDMHWVRQAPGKGLEWMAVISYDGINKYYADSVKGRFTISRDNSKNTLYLQMNSLRAEDTAVYYCAKGTYSWYFDLWGRGTLVTVSS VL: not shown | 42 | 76 | 4570 | 1 |  |  | IC50 of Dil-Acetylated LDL uptake inhibition [1]: > 100 nM |
| H1H27760P2-N297Q (antibody, human IgG1, V domains shown, human IgG1 Fc with N297Q; also called H1H27760P-N297Q) VH: EVQLVESGGGLVQPGRSLRLSCAASGFTFDAYAMHWVRQAPGKGLEWVSGISWNSGSIGYADSVKGRFTISRDNAKNSLYLQMNSLREEDTALYYCAKDKILELYYYGMDVWGQGTTVTVSS VL: not shown | 46 | 70 | 3430 | 1 |  |  | IC50 of Dil-Acetylated LDL uptake inhibition [1]: 2.6 nM; IC50 of Dil-Oxidized LDL uptake inhibition [1]: 4.9 nM |
| H1H27732P-N297Q (antibody, human IgG1, V domains shown, human IgG1 Fc with N297Q) VH: QLQLQESGPGLVKPSETLSLTCTVSGGSISSSTYYWGWIRQPPGKGLEWIGSFYYSGSTYYNPSLKSRVTISVGTSKNQFSLKLSSVTAADTAVYFCARGGLLGRPFVIWGQGTMVTVSS VL: DIQMTQSPSSLSASVGDRVTITCRASQGIRNDLGWYQQKPGKAPKRLIYAASSLQSGVPSRFSGSGSGTEFTLTISSLQPEDFATYYCLQHNSYPLTFGGGTKVEIKR | 62 | 86 | 3420 | 1 |  |  |  |
| H1H27771P2-N297Q (antibody, V domains shown, Human IgG1 Fc with N297Q; also called H1H27771P-N297Q) VH: EVQLVESGGGLVQPGGSLRLSCAASGFTFSSYGMNWVRQAPGKGLEWVSVISGSGGSTYYADSVKGRFTISRDNSKNTLYLQMNSLRAEDTAVYYCAKDRWTYYYDSSGSPFDYWGQGTLVTVSS VL: not shown |  |  |  |  |  |  | % Blocking [3]: -1% |
| H1H27778P2-N297Q (antibody, human IgG1, V domains shown, Human IgG1 Fc with N297Q; also called H1H27778P-N297Q) VH: EVQLVESGGGLEQPGGSLRLSCAASGFTFSSYAMSWVRQAPGKGLEWVSVISGSGGYTNYADSVKGRFTISRDNSKNTLYLQMNRLRAEDSAVYYCARHNWNYDYYGMDVWGQGTTVTVSS VL: not shown |  |  |  |  |  |  | % Blocking [4]: -40%; % Blocking [3]: -8% |
| H1H27731P-N297Q-LP1 (antibody, V domains shown, LXR agonist linker-payload LP1 clicked to azido-PEG3-amine on Q295 and Q297 (EU) of the heavy chain constant region, antibody-drug conjugate; human IgG1 Fc with N297Q (EU); also called H1H27731P-LP1) VH: QLQLQESGPGLVKPSETLSLTCTVSGGSISRISYYWGWIRQPPGKGLEWIGSIYDSGSTYYNPSLKSRVTISIDTSKNQFSLKLSSVTAADTAVYYCVRYSSSSAFAFDYWGQGTLVTVSS VL: DIQMTQSPSSVSASVGDRVTITCRASQGISSWLAWYQQKPGKAPKLLIYAASSLQSGVPSRFSGSGSGTDFTLTISSLQPEDFATYYCQQANSFPFTFGPGTKVDIKR |  |  |  |  | ≤ 0.078 | ≥ 19.3 | kon [5]: 128000 M⁻¹ s⁻¹; koff [6]: ≤ 1e-05 s⁻¹ |
| H1H27732P-N297Q (antibody, human IgG1, V domains shown, human IgG1 Fc with N297Q (EU)) VH: QLQLQESGPGLVKPSETLSLTCTVSGGSISSSTYYWGWIRQPPGKGLEWIGSFYYSGSTYYNPSLKSRVTISVGTSKNQFSLKLSSVTAADTAVYFCARGGLLGRPFVIWGQGTMVTVSS VL: DIQMTQSPSSLSASVGDRVTITCRASQGIRNDLGWYQQKPGKAPKRLIYAASSLQSGVPSRFSGSGSGTEFTLTISSLQPEDFATYYCLQHNSYPLTFGGGTKVEIKR |  |  |  |  | ≤ 0.045 | ≥ 19.3 |  |
| H1H27732P-N297Q-LP1 (antibody, human IgG1, V domains shown, LXR agonist linker-payload LP1 clicked to azido-PEG3-amine on Q295 and Q297 (EU) of the heavy chain constant region, antibody-drug conjugate; human IgG1 Fc with N297Q (EU); also called H1H27732P-LP1) VH: QLQLQESGPGLVKPSETLSLTCTVSGGSISSSTYYWGWIRQPPGKGLEWIGSFYYSGSTYYNPSLKSRVTISVGTSKNQFSLKLSSVTAADTAVYFCARGGLLGRPFVIWGQGTMVTVSS VL: DIQMTQSPSSLSASVGDRVTITCRASQGIRNDLGWYQQKPGKAPKRLIYAASSLQSGVPSRFSGSGSGTEFTLTISSLQPEDFATYYCLQHNSYPLTFGGGTKVEIKR |  |  |  |  | ≤ 0.066 | ≥ 19.3 | kon [5]: 150000 M⁻¹ s⁻¹; koff [6]: ≤ 1e-05 s⁻¹ |

Source: patent US20190367631A1 (Regeneron, published 2019)
